# T1: TMR-CGYPKHREMAVDSP (Drosophila)
# T1 peptide: Ac-C(TMR)GYPKHREMAVDSP-NH2
# T2: D. melanogaster Par-6 PDZ domain (residues 156-255) (D. melanogaster, UniProt O97111 156-255)
# T2 sequence (looked up): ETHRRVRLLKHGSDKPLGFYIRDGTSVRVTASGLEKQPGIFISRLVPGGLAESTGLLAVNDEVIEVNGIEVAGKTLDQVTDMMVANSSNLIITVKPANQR
# Assays:
# [1] = biological target: T1, TMR-CGYPKHREMAVDSP; assay: fluorescence polarisation
# [2] = biological target: T2, D. melanogaster Par-6 PDZ domain …; assay: fluorescence polarisation
Kd [1] [µM],Kd [2] [µM],Binder
48,,"PDZ-PxxP-COOH synthetic regulatory system without decoy ([Par-6 156-255]-PPPALPPKHREMAAD) (other, D. melanogaster) ETHRRVRLLKHGSDKPLGFYIRDGTSVRVTASGLEKQPGIFISRLVPGGLAESTGLLAVNDEVIEVNGIEVAGKTLDQVTDMMVANSSNLIITVKPANQRLPPPALPPKHREMAAD"
,15,Ac-C(TMR)GYPKHREMAAD-NH2 [TMR-CGYPKHREMAAD]

# — PMC3358930 (ACS synthetic biology, 2011)
